Laboratory results as given in patent US20070128192A1.

Columns and labels:
human IL-13 (human) = human IL-13 (human) (UniProt P35225); experiment: cell-based or functional assay
[1] = molecular target: native (naturally occurring) human IL-13 released from HDLM-2 cells (human) (UniProt P35225); experiment: cell-based or functional assay
native (naturally occurring) human IL-13 released from HDLM-2 cells (human), sequence (P35225 other isoform, or with tags, fused parts or gaps): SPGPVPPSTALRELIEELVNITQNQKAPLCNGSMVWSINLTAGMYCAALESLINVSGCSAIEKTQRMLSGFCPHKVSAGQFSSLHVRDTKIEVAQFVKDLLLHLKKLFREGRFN

human IL-13 (human), sequence (P35225 other isoform, or with tags, fused parts or gaps): as above

## B-B13 (antibody)
Human IL-13 (human)
  IC50, TF-1 proliferation assay: 1.02 nM
  IC50, eotaxin release from NHLF: 0.219 nM
[1]
  IC50, HDLM-2 cell proliferation assay: 16.7 nM

## JES10-5A2 (antibody)
Human IL-13 (human)
  IC50, TF-1 proliferation assay: 0.471 nM
  IC50, eotaxin release from NHLF: 0.623 nM
[1]
  IC50, HDLM-2 cell proliferation assay: 10.7 nM
